This note sets out measurements from PMC5696371, “The HSF1–PARP13–PARP1 complex facilitates DNA repair and promotes mammary tumorigenesis” (Nature Communications, 2017).

For the assay, the target named is T1, hPARP13-His (human, UniProt Q7Z2W4 1-902).
T1 construct: human PARP13 cDNA in pET21a, His tag at the C terminus; also called His-tagged hPARP13; source: E. coli, purified (Ni Sepharose 6 Fast Flow); not shown: His, C-terminal, kept
Put plainly: pull-down; purified GST fusion proteins and purified hPARP13-His mixed in NT buffer (50 mM Tris-HCl pH 7.5, 150 mM NaCl, 1 mM EDTA, 0.5% NP40) for 1 h at 4 °C, then glutathione-sepharose beads 2 h at 4 °C; immunoblotting. As to conditions: both partners purified.

T1 sequence (Q7Z2W4 whole entry): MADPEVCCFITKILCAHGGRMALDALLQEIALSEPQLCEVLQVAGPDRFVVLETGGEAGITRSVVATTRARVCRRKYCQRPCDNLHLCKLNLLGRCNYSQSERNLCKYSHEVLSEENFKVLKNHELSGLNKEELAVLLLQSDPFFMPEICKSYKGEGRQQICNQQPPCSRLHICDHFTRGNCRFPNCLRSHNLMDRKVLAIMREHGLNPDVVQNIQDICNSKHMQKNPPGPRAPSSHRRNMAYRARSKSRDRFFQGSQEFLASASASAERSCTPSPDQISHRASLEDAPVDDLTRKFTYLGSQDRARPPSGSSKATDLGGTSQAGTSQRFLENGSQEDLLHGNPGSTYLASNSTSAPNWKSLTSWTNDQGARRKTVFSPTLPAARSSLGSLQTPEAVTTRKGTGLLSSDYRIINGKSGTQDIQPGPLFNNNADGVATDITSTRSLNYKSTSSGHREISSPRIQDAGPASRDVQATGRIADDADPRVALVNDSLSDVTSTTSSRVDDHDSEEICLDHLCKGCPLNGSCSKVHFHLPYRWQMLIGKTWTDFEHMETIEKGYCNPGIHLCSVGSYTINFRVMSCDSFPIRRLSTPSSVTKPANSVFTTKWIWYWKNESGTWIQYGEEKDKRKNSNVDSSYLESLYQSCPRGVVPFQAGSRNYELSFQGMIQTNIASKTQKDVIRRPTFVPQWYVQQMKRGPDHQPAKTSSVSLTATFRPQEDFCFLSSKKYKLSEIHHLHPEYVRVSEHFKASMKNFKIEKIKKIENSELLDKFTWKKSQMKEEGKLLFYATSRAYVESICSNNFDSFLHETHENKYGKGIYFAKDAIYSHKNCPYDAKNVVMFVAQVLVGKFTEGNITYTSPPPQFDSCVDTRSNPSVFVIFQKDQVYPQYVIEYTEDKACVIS

B1: GST-hHSF1 (natural protein, human, UniProt Q00613 1-529, looked up)
chain: MDLPVGPGAAGPSNVPAFLTKLWTLVSDPDTDALICWSPSGNSFHVFDQGQFAKEVLPKYFKHNNMASFVRQLNMYGFRKVVHIEQGGLVKPERDDTEFQHPCFLRGQEQLLENIKRKVTSVSTLKSEDIKIRQDSVTKLLTDVQLMKGKQECMDSKLLAMKHENEALWREVASLRQKHAQQQKVVNKLIQFLISLVQSNRILGVKRKIPLMLNDSGSAHSMPKYSRQFSLEHVHGSGPYSAPSPAYSSSSLYAPDAVASSGPIISDITELAPASPMASPGGSIDERPLSSSPLVRVKEEPPSPPQSPRVEEASPGRPSSVDTLLSPTALIDSILRESEPAPASVTALTDARGHTDTEGRPPSPPPTSTPEKCLSVACLDKNELSDHLDAMDSNLDNLQTMLSSHGFSVDTSALLDLFSPSVTVPDMSLPDLDSSLASIQELLSPQEPPRPPEAENSSPDSGKQLVHYTAQPLFLLDPGSVDTGSNDLPVLFELGEGSYFSEGDGFAEDPTISLLTGSEPPKAKDPTVS
notes: human HSF1 fused to GST; the legend marks 'full-length GST-fusion proteins'; source: E. coli, purified (Glutathione Sepharose 4B)
Consider B1, for which the binding result is listed as “binds”.
